Test results taken from patent US20130196320A1, “METHOD FOR IMPROVING CLEAVAGE OF DNA BY ENDONUCLEASE SENSITIVE TO METHYLATION” (CELLECTIS, priority 2010, published 2013).

Legend:
[1] = molecular target: T1, I-CreI wild type (Chlamydomonas reinhardtii, UniProt P05725 SEQ:1-163); assay: FP; 400 mM NaCl, 10 mM CaCl2, pH8, 25 C; conditions: tags: C-terminal 6xHis, E. coli BL21; chain copies: 2 (inferred); label: 5' fluorescein on forward strand
T1 sequence: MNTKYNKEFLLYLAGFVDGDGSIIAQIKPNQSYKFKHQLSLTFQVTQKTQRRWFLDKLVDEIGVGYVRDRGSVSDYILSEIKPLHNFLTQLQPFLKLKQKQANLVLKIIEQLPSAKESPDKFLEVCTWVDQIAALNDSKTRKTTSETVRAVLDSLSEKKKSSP
Method: (§1) FIG. 4: Spectrofluorimetric titration of fluorescein-labeled C1234 by I-Cre I wild type. 25 nM of C1234 duplex was incubated with increasing concentrations of I-Cre I [from 0 to 400 nM, only 0-80 nM shown] in binding buffer (10 mM Tris-HCl, 400 mM NaCl, 10 mM CaCl₂, 10 mM DTT, pH8) at 25° C. After 30 minutes incubation, the fluorescence anisotropy of the mixture was recorded with a Pherastar Plus (BMG Labtech) operating in fluorescence polarization end point mode with excitation and emission wavelengths set to 495 and 520 nm respectively. Normalized fluorescence anisotropy is plotted as a function of active I-Cre I concentration. Apparent dissociation constant were determined by fitting raw data by an hyperbolic function (Aₓ=(A_{∞}*[Meganuclease])/(Kd+[Meganuclease]) with Aₓ, the fluorescence anisotropy value obtained at a given meganuclease concentration, A_{∞}, the fluorescence anisotropy value obtained at saturating concentration of meganuclease and Kd the dissociation constant of the equilibrium studied).
Fluorescein labeled C1234 oligonucleotides were synthesized and HPLC-purified by Eurogentec. To prepare C 1234 duplex corresponding to I-Cre I double strand DNA wild type target, C1234 forward (SEQ ID NO: 31, “a” strand below) labeled with Fluorescein on its 5′ end was mixed with 1 equivalent of C1234_reverse (SEQ ID NO: 32, “b” strand below) in 100 mM Tris-HCl, 50 mM EDTA, 150 mM NaCl, pH8. The mixture was heated to 95° C. for 2 min and then cooled down to 25° C. over 1 hour. C1234 duplex was eventually purified by anion exchange chromatography using a miniQ PE column (GE healthcare) pre-equilibrated with buffer A (20 mM Tris-HCl, pH7.4). Single stranded oligonucleotides and other contaminants were first discarded using a 0 to 360 mM NaCl step gradient and elution of pure C1234 duplex was performed with a 360-1000 mM NaCl linear gradient (5 column volumes). C 1234 duplex and fluorescein final concentrations were assessed by spectrophotometry using their respective extinction coefficients ε₂₆₀ₙₘ=62900 M⁻¹ cm⁻¹ and ε₄₉₅ₙₘ=83000 M⁻¹ cm⁻¹. […]

[2] = molecular target: T1, I-CreI wild type; assay: FP; 400 mM NaCl, 10 mM CaCl2, pH8, 25 C; no saturation; conditions: tags: C-terminal 6xHis, E. coli BL21; chain copies: 2 (inferred); label: 5' fluorescein on forward strand
Method: as §1
(§2) Fluorescein labeled C1234 oligonucleotides were synthesized and HPLC-purified by Eurogentec. […] C 1234 duplex and fluorescein final concentrations were assessed by spectrophotometry using their respective extinction coefficients ε₂₆₀ₙₘ=62900 M⁻¹ cm⁻¹ and ε₄₉₅ₙₘ=83000 M⁻¹ cm⁻¹. […]

[3] = molecular target: T2, I-CreI D75N (UniProt P05725 SEQ:1-167); assay: cleavage_in_vitro; relative to unmethylated C1221; conditions: tags: C-terminal 6xHis, E. coli BL21; chain copies: 2 (inferred)
T2 chain: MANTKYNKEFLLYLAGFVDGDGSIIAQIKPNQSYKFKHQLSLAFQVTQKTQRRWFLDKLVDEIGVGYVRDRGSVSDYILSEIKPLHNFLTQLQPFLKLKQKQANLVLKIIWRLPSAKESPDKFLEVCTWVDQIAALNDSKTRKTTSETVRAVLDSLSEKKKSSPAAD
Method: FIG. 3: In vitro cleavage of unmethylated or methylated C1221 by I-CreI D75N. 50 nM C1221 containing either 0, 1, 2 or 3 methylated CG was incubated with increasing concentrations of I-CreI D75N (0 to 2 μM) in reaction buffer (10 mM Tris-HCl, 150 mM NaCl, 10 mM MgCl₂, pH8) for an hour at 37° C. The reaction was stopped and cleaved and uncleaved C1221 (top and bottom panel respectively) were quantify and plotted as function of I-CreI D75N concentration.
To investigate the influence of C1221 methylation on the nuclease activity of I-CreI, an in vitro cleavage assay with either unmethylated or fully methylated C1221 duplex (SEQ ID NOs: 4-5 and 12-13 respectively) was performed. A constant amount of C1221 duplex (50 nM) was incubated with increasing concentration of I-CreI (0 to 2 μM) in a total volume of 25 μL of reaction buffer (10 mM Tris-HCl, 150 mM NaCl, 10 mM MgCl₂, pH8). Cleavage reaction was allowed to proceed 1 hour at 37° C. and then stopped by addition of 5 μL of 6× stop buffer (45% glycerol, 95 mM EDTA, 1.5% (w/v) SDS, 1.5 mg/mL proteinase K and 0.048% (w/v) bromophenol blue) followed by an hour incubation at 37° C. Cleaved and uncleaved DNA products were separated by PAGE using a TGX Any kD precast gel (Bio-Rad), stained with SYBR Green and then quantified using Quantity One software (Bio-Rad).
To investigate the influence of C1221 methylation on the nuclease activity of I-CreI D75N, in vitro cleavage assay with C1221 duplex containing either 0, 1, 2 or 3 methylated CG (SEQ ID NOs: 4-5, 6-7, 8-9, 10-11 respectively) was performed, according to the procedure described for I-CreI wild type.

[4] = molecular target: T1, I-CreI wild type; assay: FP; 10 mM Tris pH8, 400 mM NaCl, 10 mM CaCl2, 10 mM DTT, 25 C; conditions: tags: C-terminal 6xHis, E. coli BL21; chain copies: 2 (inferred); label: 5' fluorescein on forward (a) strand
Method: as §1, §2

[5] = molecular target: T3, XPC4 meganuclease (I-CreI-derived) (Artificial Sequence); assay: FP; 10 mM CaCl2, 150 mM NaCl, pH8, 25 C
T3 chain: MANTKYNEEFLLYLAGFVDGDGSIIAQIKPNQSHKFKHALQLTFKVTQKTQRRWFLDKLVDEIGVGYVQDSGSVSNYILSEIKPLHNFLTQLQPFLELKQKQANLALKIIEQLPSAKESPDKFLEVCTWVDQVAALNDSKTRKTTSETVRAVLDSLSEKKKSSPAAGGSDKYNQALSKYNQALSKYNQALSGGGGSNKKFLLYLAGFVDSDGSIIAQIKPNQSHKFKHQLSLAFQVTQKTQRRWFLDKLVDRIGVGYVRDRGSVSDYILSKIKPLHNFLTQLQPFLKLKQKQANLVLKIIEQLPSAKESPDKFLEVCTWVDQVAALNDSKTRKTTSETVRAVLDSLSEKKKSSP

[6] = molecular target: T4, ADCY9 meganuclease (I-CreI-derived) (Artificial Sequence); assay: FP; 10 mM CaCl2, 150 mM NaCl, pH8, 25 C
T4 chain: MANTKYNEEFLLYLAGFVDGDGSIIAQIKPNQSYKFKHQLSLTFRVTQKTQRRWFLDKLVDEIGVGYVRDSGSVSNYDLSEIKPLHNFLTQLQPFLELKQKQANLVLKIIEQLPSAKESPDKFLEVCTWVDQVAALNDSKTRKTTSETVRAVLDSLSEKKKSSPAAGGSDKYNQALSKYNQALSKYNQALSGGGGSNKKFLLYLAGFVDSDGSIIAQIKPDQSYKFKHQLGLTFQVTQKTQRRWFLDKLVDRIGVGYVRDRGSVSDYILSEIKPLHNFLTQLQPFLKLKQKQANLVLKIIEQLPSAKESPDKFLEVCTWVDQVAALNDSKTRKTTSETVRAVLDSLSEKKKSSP

[7] = molecular target: T4, ADCY9 meganuclease (I-CreI-derived); assay: FP; apparent Kd, sigmoidal binding; 10 mM CaCl2, 150 mM NaCl, pH8, 25 C
[8] = molecular target: T3, XPC4 meganuclease (I-CreI-derived); assay: FP; 10 mM CaCl2, 150 mM NaCl, pH8, 25 C; not significantly different from unmethylated

B1: C1234_Me-5b (dsDNA)
DNA 1: TCAAAACGTCGTGAGACAGTTTGG
DNA 2: CCAAACTGTCTCACGACGTTTTGA
modifications: 5mC at -5b
Question: Which Kd [1] does the source give for B1 here?
Answer: 24 nM

B2: C1234_Me-2b (dsDNA)
DNA 1: TCAAAACGTCGTGAGACAGTTTGG
DNA 2: CCAAACTGTCTCACGACGTTTTGA
modifications: 5mC at -2b
Question: Which Kd [1] does the source give for B2 here?
Answer: 40.8 nM

B3: C1234_Me full (dsDNA)
DNA 1: TCAAAACGTCGTGAGACAGTTTGG
DNA 2: CCAAACTGTCTCACGACGTTTTGA
modifications: 5mC at -6a, -3a, -5b, -2b
Question: Which Kd [2] does the source give for B3 here?
Answer: > 1000 nM

B4: C1221_1Me (dsDNA)
DNA 1: GGGGTCAAAACGTCGTACGACGTTTTGAGGGG
DNA 2: CCCCTCAAAACGTCGTACGACGTTTTGACCCC
modifications: 5mC at 1 CpG on both strands
Question: Which activity [3] does the source give for B4 here?
Answer: ~3 fold increase of C50

B5: C1221_2Me (dsDNA)
DNA 1: GGGGTCAAAACGTCGTACGACGTTTTGAGGGG
DNA 2: CCCCTCAAAACGTCGTACGACGTTTTGACCCC
modifications: 5mC at 2 CpG on both strands
Question: How did the activity [3] turn out when B5 was run?
Answer: > 10 fold increase of C50

B6: C1221_3Me (dsDNA)
DNA 1: GGGGTCAAAACGTCGTACGACGTTTTGAGGGG
DNA 2: CCCCTCAAAACGTCGTACGACGTTTTGACCCC
modifications: 5mC at 3 CpG on both strands
Question: How did the activity [3] turn out when B6 was run?
Answer: > 10 fold increase of C50

B7: C1234_Me-6a/-3a (dsDNA)
DNA 1: TCAAAACGTCGTGAGACAGTTTGG
DNA 2: CCAAACTGTCTCACGACGTTTTGA
modifications: 5mC at -6a, -3a
Question: For B7, which Kd [1] is on record?
Answer: ≤ 2.5 nM

B8: C1234 (dsDNA)
DNA 1: TCAAAACGTCGTGAGACAGTTTGG
DNA 2: CCAAACTGTCTCACGACGTTTTGA
Question: Which Kd [4] does the source give for B8 here?
Answer: ≤ 2.5 nM

B9: XPC4.1 (dsDNA)
DNA 1: TCGAGATGTCACACAGAGGTACGA
DNA 2: TCGTACCTCTGTGTGACATCTCGA
Question: Which Kd [5] does the source give for B9 here?
Answer: 108 nM

B10: ADCY9.1 (dsDNA)
DNA 1: CCCAGATGTCGTACAGCAGCTTGG
DNA 2: CCAAGCTGCTGTACGACATCTGGG
Question: For B10, which Kd [6] is on record?
Answer: 190 nM

B11: C1234_Me-5b/-2b (dsDNA)
DNA 1: TCAAAACGTCGTGAGACAGTTTGG
DNA 2: CCAAACTGTCTCACGACGTTTTGA
modifications: 5mC at -5b, -2b
Question: Which Kd [2] does the source give for B11 here?
Answer: > 1000 nM

B12: ADCY9.1_Me -3a/-2b (dsDNA)
DNA 1: CCCAGATGTCGTACAGCAGCTTGG
DNA 2: CCAAGCTGCTGTACGACATCTGGG
modifications: 5mC at -3a, -2b
Question: With B12 as the binder, how does the Kd [7] read?
Answer: 431 nM

B13: XPC4.1_Me -11a/-10b & +10a/+11b (dsDNA)
DNA 1: TCGAGATGTCACACAGAGGTACGA
DNA 2: TCGTACCTCTGTGTGACATCTCGA
modifications: 5mC at -11a, -10b, +10a, +11b
Question: For B13, which Kd [8] is on record?
Answer: 127 nM
